The target in this test is T1, human migfilin (residues 1-85) Ser12His (human, UniProt Q8WUP2 1-85, Ser12His).
T1 sequence: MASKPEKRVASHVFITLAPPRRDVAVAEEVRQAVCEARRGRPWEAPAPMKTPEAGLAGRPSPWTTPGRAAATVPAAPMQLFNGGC
Nature of the test: NMR.

B1: GST-tagged human filamin A domain 21 (FLNa21) labelled with 4-trifluoromethyl-L-phenylalanine at position 2274 (domain or fragment)
chain: GGAHKVRAGGPGLERAEAGVPAEFSIWTREAGAGGLAIFVEGPSKAEISFEDRKDGSCGVAYVVQEPGDYEVSVKFNEEHIPDSPFVVPVASP
modifications: 4-trifluoromethyl-L-phenylalanine (tfmF) at position 2274
With B1, binding was put at a Kd of 4.9 µM.

Usually Kd stands for the free concentration of one partner at which half of the binding sites on the other are occupied at equilibrium, for simple one-to-one binding.

(Values after publication PMC12062419 (2025).)
